The source of these data is publication doi:10.1101/2025.08.15.670619.

The term stoichiometry N denotes a count of units in the complex or per binding partner.

This test deals with Full-length Synechococcus PCC 7335 nitric oxide synthase (syNOS) (Synechococcus sp. PCC 7335). Put plainly: cryo-EM structure.

The substance “Full-length Synechococcus PCC 7335 nitric oxide synthase (syNOS) (enzyme)” had a stoichiometry N of 2.
